Experimental findings from US20140010756A1 (KAGOSHIMA UNIVERSITY, published 2014) are described below.

For this assay, the target named is T1, human folate receptor β (FRβ) (human, UniProt P14207 23-230).
T1 construct: Expressed on mouse B300-19 cells from cDNA cloned from human rheumatoid synovial membrane; also called human FRβ
Description: hybridoma antibodies selected by reactivity with FRβ-expressing cells (human FRβ on mouse B300-19 cells); reactivity analysed by flow cytometry. In general terms: Flow cytometry measures light scatter and fluorescence of single cells or particles in a stream.

T1 sequence (P14207 23-230 S117T limits assumed): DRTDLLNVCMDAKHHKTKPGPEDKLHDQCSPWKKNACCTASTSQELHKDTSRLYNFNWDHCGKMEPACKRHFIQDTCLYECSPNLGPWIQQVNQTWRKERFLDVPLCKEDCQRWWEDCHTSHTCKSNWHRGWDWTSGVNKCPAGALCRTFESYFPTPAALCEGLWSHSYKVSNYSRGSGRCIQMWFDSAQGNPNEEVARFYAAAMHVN

B1: anti-human FRβ mouse monoclonal antibody 36b (antibody, mouse IgG2a, V domains shown)
VH: QVQLQQSGAELMKPGASLKISCKATGYTFSSYWIEWVKQRPGHGLQWIGEILPGSGSSNYNEKFKGKATFTADTSSNTAYMQLSSLTSEDSAVYYCARRGSSGSYFAMDYWGQGTSVTVSS
VL: DIQMTQSSSSFSVSLGDRVTITCKASEDIYNRLAWYQQKPGNAPRLLISGATSLETGVPLRFSGSGSGKDYTLSITSLQTEDIATYYCQQYWSTPWTFGGGTKLEIKK
notes: also called Clone 36b
With B1, the binding result is “binds”.
